Test results as given in paper PMC9997659, “TLN1 contains a cancer-associated cassette exon that alters talin-1 mechanosensitivity” (The Journal of Cell Biology, 2023).
Values joined by “and” are separate entries in the source; they are usually repeats but may differ in a detail not shown here. Equal entries are not always repeated.

Columns and labels:
[1] = molecular target: Human talin-1 R1R2-17b (residues 482-786 + additional 17 residues of exon 17b) (human) (UniProt Q9Y490); assay: SEC; analytical gel filtration, Superdex 200 Increase 10/300 GL, run at room temperature; VD1 preincubated with talin R1R2 at a 3:1 ratio for 1 h at 37°C; 100 µl, 100-400 µM protein
[2] = molecular target: T1, Human talin-1 R1R2-WT (residues 482-786) (human, UniProt Q9Y490 482-786); assay: NMR titration; 1H,15N TROSY spectra of 100 µM R1R2 alone and with 300 µM RIAM peptide; 50 mM NaCl, 15 mM NaH2PO4, 6 mM Na2HPO4, 2 mM DTT, pH 6.5, 298K; conditions: both partners purified
T1 construct: talin-1 (TLN1), human, rod domains R1 and R2, residues 482-786 of the 2,541 amino acid protein; codon optimized synthetic gene in pET151; also called wild-type R1R2; talin R1R2-WT; source: E. coli BL21(DE3)*, purified (Nickel-NTA, TEV cleavage, HiTrap Q)
T1 sequence (Q9Y490 482-786): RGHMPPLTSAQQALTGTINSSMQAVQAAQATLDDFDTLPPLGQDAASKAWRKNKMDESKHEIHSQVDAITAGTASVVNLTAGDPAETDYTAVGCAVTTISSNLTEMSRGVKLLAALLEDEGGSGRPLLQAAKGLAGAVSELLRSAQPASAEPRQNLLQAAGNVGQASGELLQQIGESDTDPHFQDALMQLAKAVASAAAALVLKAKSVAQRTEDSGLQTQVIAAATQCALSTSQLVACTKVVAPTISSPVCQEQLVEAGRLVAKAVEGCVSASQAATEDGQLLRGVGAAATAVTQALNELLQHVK

Row | Molecule | stoichiometry N (vinculin per talin) [1] | binding result [2]
1 | Vinculin domain 1 (VD1) (from UniProt P18206 1-258) (domain or fragment) | 2 and 3 | 
2 | SEDIDQMFSTLLGEMDLLTQSLGVDTC (RIAM (Rap1-effector), residues 4-30 as printed; source: synthetic peptide (GLBiochem)) [RIAM peptide (residues 4-30)] |  | binds
